Results published in patent US20160145352A1 (INSTITUT NATIONAL DE LA RECHERCHE AGRONOMIQUE, published 2016).

Tests used:
[1] = molecular target: H4 histone (in total histones acid-extracted from HT1080 human cells) (human, UniProt P62805 2-103); test: immunoblot on acid-extracted total histones of HT1080 cells, overlaid on Ponceau red staining
[2] = molecular target: H2B histone in the monomeric state (HPLC-purified fraction) (human, UniProt P62807 2-126); test: immunoblot on HPLC-purified histones, VHH-HA plus anti-HA, HRP/ECL
Procedure: (§1) After blocking in TBS-T (Tris buffered saline, 0.1% Tween® 20), 5% skimmed milk, the membrane is incubated for 1 h in a dilution of the VHH-HA polypeptide (5 μg/ml) combined with an anti-HA antibody (HA-11 mouse monoclonal 16B12 from Covance) diluted to 1 μg/ml in TBS-T, 5% skimmed milk. The membranes are also probed with the anti-H2AX (Epitomics clone EPR895) and anti-γH2AX (Millipore) monoclonal antibodies. After 3 washes in TBS-T, the blot is incubated with the anti-mouse secondary antibody coupled to horseradish peroxidase (HRP) (Cell Signaling), then washed 3 times for 10 min. Visualization is carried out with an ECL substrate (Enhanced Chemiluminescence West Dura Thermo scientific). The chemiluminescence photon emission is captured by a camera (G-Box Syngene).
(§2) To this effect, the proteins of the fractions thus obtained, in particular of the fractions containing H2A, H2B and H3, and also a mixture of the H2A and H2B fractions, are separated by electrophoresis in a denaturing polyacrylamide gel (NuPage® Bis Tris, Life Technologies), then transferred onto a nitrocellulose membrane. The visualization is carried out according to the protocol described above.

[3] = molecular target: H3 histone (HPLC-purified fraction) (human, UniProt P68431 2-136); test: as above
Procedure: as §1, §2

Measured: binding result

B1: S2-HA polypeptide (VHH S2 fused to the HA tag) (VHH)
VHH: QVQLQASGGGLVQAGDSLRLSCAAAGRSFSSYAMGWFRQAPGKEREFVAAISRSRGVTYADSVKGRFTISKDNVKNMAYLQMNSLKPEDTGVYYCAATSSGSTRQLSTGRSNYWGQGTQVTVS
notes: Secreted into E. coli culture medium from pHEN4-VHH; it calls it the VHH domain; also called VHH-HA; not shown: HA tag from the pHEN4 vector
no binding (tested: 5 µg/ml): [1] | [2] | [3]

B2: C25-HA polypeptide (VHH C25 fused to the HA tag) (VHH)
VHH: QVQLQASGGGLVQAGESLTLSCDASGRTFSIGAMGWFRQAPGKEREFLAAINWNGGYTSYADVASGRFTISRNAKNTVYLQMNSLQPEDTAVYYCAAKYGGSARSRTYDYWGQGTQVTVS
notes: Secreted into E. coli culture medium from pHEN4-VHH; also called VHH-HA; not shown: HA tag from the pHEN4 vector
no binding (tested: 5 µg/ml): [1] | [2] | [3]

B3: C76-HA polypeptide (VHH C76 fused to the HA tag) (VHH)
VHH: QVQLQASGGGLVQAGGSLRLSCAVSGGTLSSYTMGWFRQAPGKEREFVSALSRVGGKSDYADSVKGRFTISRNAKNTVYLQMNSLKPEDTAVYYCAAGGYSRRWSAYNYWGQGTQVTVS
notes: Secreted into E. coli culture medium from pHEN4-VHH; also called C75-HA (as printed in Experiment 2); VHH-HA; not shown: HA tag from the pHEN4 vector
no binding (tested: 5 µg/ml): [1] | [2] | [3]
